Experimental findings from the nanobody polyreactivity screen of Harvey et al. (2022) are described below.

This series in a line: yeast display, Sf9 membrane polyspecificity reagent, FACS + sequencing; frameworks hold sequencing errors. In a few lines: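 In a synthetic yeast display library (Saccharomyces cerevisiae BJ5465), nanobody expression was induced with galactose for 36–48 hours. FACS gates were set low and high (top ~1%) using anti-HA fluorescence for expression and streptavidin fluorescence for binding of the Sf9 membrane reagent. Each polyreactivity label is drawn from the gate of origin.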
For the sequence “QVQLVESGVVLVQAGGSLRLSCAASGTIFDLNAMGWYRQAPGKEREFVAAISSGGGTYYADSVKGRFTISRDNANNTVYLQMNSQKPEDTAVYYCKARARRYGGRYYYWGQGTQVTVSS”, the “polyreactivity (PSR sort gate)” value is “high polyreactivity”.
Take “QVQLVESGGGLVQAGGSLRLSCAASGFTLKYYAMGWYRQAPGKERELVAAISSGDSTNYADSVKGRFTISRDNAKNTVYLQMNSLKPEDTAVYYCNTRYPSSSYYYWGQGTQVTVSS”: the “polyreactivity (PSR sort gate)” value is listed as “low polyreactivity”.
As for “QVQLVESGGGLVQAGGSLRISCAASGLTFDYYAMGSYRQAPGKERELVAAITSGSITYYADSVKGRFTISRDNAKNTVYLQMNSLKPEDTAVYYCAAKRTSFTARYGYWGLGTQVTVSS”, the “polyreactivity (PSR sort gate)” value was “high polyreactivity”.
As to “QVQLVESGGGLVQAGGSLRLSCAASGLTFDSNAMGWYRQAPGKERELVAAISGSVGSTYYADSVKGRFTISRDNAKNTVYLQMNSLKPEDTAVYYCNASSVDKGYDYWGQGTQVTVSS”, the “polyreactivity (PSR sort gate)” value is reported as “low polyreactivity”.
Consider “QVQLVESGGGLVQAGGSLRLSCAASGRTFNGYALGSSRQAPGKERELVAAISGRGRSTRYADSVKGRFTISRDNAKNTVYLQMNSLNPEDTAVYYCNARGYSETQREYDSWGQGTQVTVSS”, for which the “polyreactivity (PSR sort gate)” value was “high polyreactivity”.
Regarding “QVQLVESGGGLVQAGGSLRLSCAASGFTFHLYAMGWYRQAPRKERELVAAISQSGDSTYYADTVKGRFTISRDNAKNTFYLQMNSLKPEDTAVYYFNADNDCVVWTYPFDFDYWGQGTQVTVSS”, the “polyreactivity (PSR sort gate)” value is given as “low polyreactivity”.
The same measure for “QVQLVESGGGLVQAGGSLRLSCAASGRTFRWYAMGWYRQAPGKERELVASITWSGGSTYYADSVKGRFTISRDNAKNTVYLQMNSLKPEDTAVYYCNRVLVVSMYEGNYWGQGTQVTVSS”: “high polyreactivity”; for “QVQLVESGGGLVQAGGSLRLSCAASGSNSYFNAMGWYRQAPGKERELVAAITSGGSTYYADSVKGRFTISRDNAKNTVYLQMNSLKPEDTAVYYCNAPLEWGVYAAQNWDDGYWGQGTQVTVSS”: “low polyreactivity”; for “QVQIVESGGGLVQARGSLRLSCAAYGRIIYRYAMGWYRQAPGKERELVAAISASGRTYYADSVKGRFTISRDNAKNTVYLQMNSLKPADTAVYYCAKVAAGSLGSWGQGTQVTVSS”: “high polyreactivity”.
The same measure for “QVQLVESGGGLVQAGGSLRLSCAASGYIFDNNAMGWYRQAPGKERELVAAINWSGGSTYYADSVKGRFTISRDNAKNTVYLQMNSLKPEDTAVYYCNKLIYGIYYPERYAYDYWGQGTQVTVSS”: “low polyreactivity”; for “QVQLVESGGGLVQAGGSLRLSCAASGIIFGSNTMGWYRQAPGKERELVAAITSSDGSTHYADSVKGRFTISRDNAKNTVYLQMKSLKPEDTAVYYCAARKVTYGHSYGYDYWGQGTQVTLSS”: “low polyreactivity”; for “QFQLVESGGGLVQAGGSLRLSCAASGSIFSVYTMGWYRQAPGKERELVAAISTGGGSTYYADSVKGRFTISRDNAKNTVYLQMNSLKPEDTAVYYCATDYGWAPSYWYDSCGQGTQVTVSS”: “low polyreactivity”.
As to “QVQLVESGGGLVQAGGSLRLSCAASGRIFGYNALGWYRQAPGKERELVAAINSDGSKNYADSVKGRFTISRDNAKNTVYFQMNSLNPEDTALYYCNKELYPVGDYEYWGEGTQVTVSS”, the “polyreactivity (PSR sort gate)” value is “low polyreactivity”.
As to “QVQLVESGGGLVQAGGSLRLSCAASGFTFYTNVMGWYRQAPGKERELVAAINSGGSTNYADSVKGRFTISRDNAKNTVYLQRNSLKPEDTAVYYCNKRGTEIGYDYWGQGTQVTVLS”, the “polyreactivity (PSR sort gate)” value is reported as “low polyreactivity”.
The entry for “QVQLVESGGGLVQAGGSLRLSCAASGIIFFWNAMGWYRQAPGKERELVAAISSGGSTFADSVKGRFTISRDNAKNTVYLQMNSLKPEDTAVYYCAARFYHGYRPYIAIYGYGYWGQGTQVTVSS” is “low polyreactivity”.
For the sequence “QVQHVESAGGLVQAGGSLSLSCAASGSIFNLYAMGWYRQAPGKERELVAAIRWDGGSTYNADSVKGRFTISRDTAKNTVYLQMNSLKPEDTAVYYCAAETVYFRLLILDYWGQGTQVTVSS”, the “polyreactivity (PSR sort gate)” value is reported as “high polyreactivity”.
The entry for “QVQLVESGGGLVQAGGSLRLSCAASGLTFHVNAMGWYRQAPGKERELVAGITFSGGSTYYADSVKGRFTISRDNAKNTVYLLMNSLTPEDTAVYYCAADARFYAYYYWGQGTQVSVSS” is “low polyreactivity”; for “QVQLVESGGGLVQAGGSLRLSCAASGRTFLVYAMGWYRQAPGKERELVADITSGGSTDYADSVKGRFTISRDNAKNTVYLQMNSLKPEDTAVYYCATDLWRWYGWFDYWGQGTQVTVSS” it is “low polyreactivity”.
On to “QVQLVESGGGLVQAGGSLRLSCAASGSTFDRNVMGWYRQAPGKERELVAAISRVSSTNYADSVKGRFTISRDNAKNTVYLQMISLKPEDTAVYYCAVDNISNWAVENDYWGQGTQVTVSS”, for which the “polyreactivity (PSR sort gate)” value is “low polyreactivity”.
On to “QVQLVESGGGLVQAGGSLRLSCAASGSTFPVYAMGWYRQAPGKERELVAAISRAGSTNYADSVKGRFTISRDNAKNSVYLQMNSLKPEDTAVYYCAARGYLWAGEWYVRRDDWGQGTQVTVSS”, for which the “polyreactivity (PSR sort gate)” value is “high polyreactivity”.
The entry for “QVQLVESGGGLVQAGGSLRLSCAASGSIISFNTMGWYRQPPGKEREFVASIRRRGGSTYYADSVKGRFTISRDNAKNTVYLQMNSLKPEDTAVYYCAKANPHYVISDGVYHPRGGYWGQGTQVTVSS” is “low polyreactivity”; for “QVQLVESGGGLVQAGGSLRLSCAASGSIFAWYGMGWYRQAPGKERELVAAISTAGSTNYADSVKGRFTISRDNAKNTVYLQMNSLKPEDTAVYDCAKKSSWYYPERFDYWGQGTQVTVSS” it is “low polyreactivity”.
With “QVQLVESGGGLVQAGGSLRLSCAASGSIFGYYAMGWYRQAPGKERELVAAISSGDSTYADSVKGRFTISRDNAKNTVYLQMNSLKPEDTAVYYCAADEYYTFSSFELRRMDYWGQGTQVTVSS”, the “polyreactivity (PSR sort gate)” value is on record as “low polyreactivity”.
As to “QVQLVESGGGLVQAGGSLRLSCAASGRIFGVYAMGWYRQAPGKERELVAAITSSGGRTYYADSVKGRFTISRDNAKNTVYLQMNSLKPEDTAVYYCAALGWSRRGKFNYWGQGTQVTVSS”, the “polyreactivity (PSR sort gate)” value is recorded as “high polyreactivity”.
Take “QVQIVESGGGLVQAGGSLRLSCAASGSTIIRNAMGWSRQAPRKERELVAAISTSGGRTHYADSVKGRFTISRDNAKNTVYLQMNSLKPEDTAVYYCASRGKGHYYYWGQGTQVTVSS”: the “polyreactivity (PSR sort gate)” value is “high polyreactivity”.
The entry for “QVQLVESGGGLVQAGGSLRLSCAASGSIFPKYAMGWYRQAPGKERELVAGISRSGGITHYADSVKGRFTISRDNAKNTVYLQMNSLKPEDTAVYYCAALWARALSYYYWGQGTQVTVSS” is “high polyreactivity”.
For the sequence “QVQLVESGGCLVQAGGSLRLSCAASGNTFRRNVMGWYRQAPGKERELVPAINRGGSTTYADSVKGRFTISRDNAMNTVYLQMNSLKPEDTAVYYCNAEKRGQSYRFDYWGQGSQVTVSS”, the “polyreactivity (PSR sort gate)” value was “high polyreactivity”.
“QVQLKESGAGLVQAGGSLRLCCAASGNIIPDAGMGWYRQAPGKEREFVAGISRGANTYYADSVKGRFTISRDNAKNSVYLQMNSLKPEDTAVYYCNAGSSYLCRFPLDYWGQGTQVTVSS”: the “polyreactivity (PSR sort gate)” value is “high polyreactivity”.
On to “QVQLVESGGGLVQAGGSLRLSCAASGRIFGGYTMGSYRQAPGKERELVAAITRSDGSTTYADSVKGRFTISRDNAKNTVSLQMNSMKPEDTAVYYCAAPRASGYYWGQCTQVTVSS”, for which the “polyreactivity (PSR sort gate)” value is “high polyreactivity”.
The same measure for “QVQLVESGGGLVQAGGSLRLSCPASGRTFSSYAMGWYRPAPGKERELVAAISRRGGSTYYADSVKGRFTISRDNAKNTVYLKMNSLKPEDTAVYYCAADVYKQYGYYYWGQGSQVTVSS”: “high polyreactivity”; for “QVQLVESGGGLVQAGGSLRLSCAASGSIFRSYAMGWYRQAPGKERELVAGISYSGGSTYYADSVKGRFTISRDKAKNTVYLQMNSLKPEDTAVYYCNVDGGTYFFFVGAWGEYDYWGQGTQVTVSS”: “low polyreactivity”; for “QVQLVESGGGLVQAGGSLRLSCAASGRTFRYNAMGWYRQAPGKERELVAAITYSGGTTYADSVKGRFTISRDNAKNTVYLQMNSLKPEDTAGYYCAARGYVWNIGRYYWGQGTQVTVSS”: “high polyreactivity”.
In the case of “QVQLEESGGGLVQAGGSLRLICAASGSIFYQYPMGWYRQAPGKERELVAGITWSGGSTYYADSVKGRFTISRDNAKNTVYLQMNSLKPEDTAVYYCAAQYFCYVYSYDYWGQGTQVTVSS”, the “polyreactivity (PSR sort gate)” value is “high polyreactivity”.
Take “QVQHVESGGGIVHAGGSLRLSCAASGSIFTRYTMGWDRMATGKERELVAVISDSSGRTYYADSVKGRFTISRDNAKNTFYLQLNSLKPADTAVYYCAAEYSDIYEYWGQGTQVTVSS”: the “polyreactivity (PSR sort gate)” value was “low polyreactivity”.
The entry for “QVQLVESGGGLVQAGGSLRLSCAASGFIFITVNAMGWYRQAPGKEREFVAAITRSGTGTYYADSVKGRFTISRDNAKNTVYLQMNSLKPEDTAVYYCAADATSTGAYDYWGQGTQVTVSS” is “low polyreactivity”; for “QVQLVESGVGLVQARRSLRLSCAASGSSKLILWDGIDRRLGKKGSWLPLFVLVVLRNYADSVKGRFTISRDNAKNTVYLQMNILKPDDTEVYYCAATAIGSGGWGDYWGLGTQVTVSS” it is “low polyreactivity”; for “QVQLVESGGGLVQAGGSLRLSCAASGFTFKRYDMGWYRQAPGKERELVAAISWNGGSTYYADSVKGRFTISRDNAKNTVYLQMNSLKPEDTAVYYCAARFAYPPKRYYWGQGTQVTVSS” it is “high polyreactivity”.
The entry for “QVQLVESGGGLVQAGGSLRLSCAASGSIFTRYTMGWYRQAPGKERELVAVISDSSGRTYYADSVKGRFTISRDNGKNTVYLQMNSLKPEDTAVYYCAAEYSDIYEYWGQGTQVTVSS” is “low polyreactivity”; for “QVQLVESVGGLVQAGGSLRLSCAASGSTFGHYAMGWYRQAPGKERELVSAISTSGGRTYYADSVKGRFTISRDNAKNTVYLQMNSLKPEDTAVYYCATRRYGVDKFDYWGQGTQVTVSS” it is “high polyreactivity”; for “QVQLVESGGGLVQAGGSLRLSCAASGSIFRWYAMGWYRQAPGKERELVAGITRGGRTNYADSVKGRFTISRDNAKNTVYLQMNSLKPEDTAVYYCAKVSRSKQKFDYWGQGTQVTVSS” it is “high polyreactivity”.
Consider “QVQLVESGGGLVQAGGSLRLSCAASGFIFGYYAMGWYRQAPGKERELVAAISWSGGSTYYADSVKGRFTISRDNAKNTVYLQMNSLKPEDTAVYYCATASPSTRYGRLGDYWGQGTQVTVSS”, for which the “polyreactivity (PSR sort gate)” value is “low polyreactivity”.
